Test results from patent US20100204105A1 (ZEALAND PHARMA A S, published 2010).

Experiments:
[1] = target: human glucagon receptor (Glucagon-R) (human, UniProt P47871 26-477); test: cell-based or functional assay
[2] = target: human glucagon-like peptide 1 receptor (GLP-1R) (human, UniProt P43220 24-463); test: cell-based or functional assay

Chain of human glucagon receptor (Glucagon-R) (P47871 26-477): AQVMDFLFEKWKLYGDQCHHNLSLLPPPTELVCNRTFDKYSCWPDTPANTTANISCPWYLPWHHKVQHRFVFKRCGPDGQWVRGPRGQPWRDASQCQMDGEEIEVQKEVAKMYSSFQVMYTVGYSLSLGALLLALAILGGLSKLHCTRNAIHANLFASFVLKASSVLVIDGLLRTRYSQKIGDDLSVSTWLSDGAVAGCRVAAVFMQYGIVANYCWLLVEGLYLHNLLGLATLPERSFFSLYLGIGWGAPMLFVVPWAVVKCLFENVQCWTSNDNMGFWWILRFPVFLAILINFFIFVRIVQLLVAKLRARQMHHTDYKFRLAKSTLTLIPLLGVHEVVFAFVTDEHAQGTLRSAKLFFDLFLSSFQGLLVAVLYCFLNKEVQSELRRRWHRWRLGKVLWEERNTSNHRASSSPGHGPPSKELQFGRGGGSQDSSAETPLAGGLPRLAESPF

H-HSQGTFTSDYSKYLDRARADDFVAWLKST-NH2 [Compound 3 (H-HSQGTFTSDYSKYLDRARADDFVAWLKST-NH2)]
EC50, cAMP content in HEK293 cells expressing hGlucagon-R (FlashPlate cAMP kit) [1]: 7.3 µM
EC50, cAMP content in HEK293 cells expressing hGlucagon-R (FlashPlate cAMP kit), re-test [1]: 0.00049 µM
EC50, cAMP content in HEK293 cells expressing hGLP-1-R (FlashPlate cAMP kit) [2]: 9.3 µM
